Assay: label from the status in PepcDB records

Sequence	protein production
HALQAGRLGSTVFVANLDYKVGWKKLKEVFSMAGVVVRADILEDKDGKSRGIGTVTFEQSIEAVQAISMFNGQLLFDRPMHVKMDERALPKGDFFPPERPQQ	failed
MDFESNGAMMEYCKSTGRTYCAFSIQQSSKLLGTVVLELFTDIAPATCANFIKYIKDGYQGTPLHRIVPNGWVQGGDIVDGSGKGDPGFVLPDETYSVKHDAPGVLGMATGGQPHTANTQFYISLSPLPFLDGKRVAFGRVLNKQSLENLLALQTLPTFQNERPVPDVVIASCHVIYNPNS	failed
IPLEQGIEFLSVNVEEDSPVVGKKLKDLPLPRDSIIAAIVRGGVLVVPRGDTEILSGDKLYVIVSAEAKETVEETLLGR	not failed
MSYSVMFALLLLTPLLFSLLCFACRKRRLSATRTVTVLHSLGITLLLILALWVVQTAADAGEIFAAGLWLHIDGLGGLFLAILGVIGFLTGIYSIGYMRHEVAHGELSPVTLCDYYGFFHLFLFTMLLVVTSNNLIVMWAAIEATTLSSAFLVGIYGQRSSLEAAWKYIIICTVGVAFGLFGTVLVYANAASVMPQAEMAIFWSEVLKQSSLLDPTLMLLAFVFLLIGFGTKTGLFPMHAWLPDAHSEAPSPVSALLSAVLLNCALLVLIRYYIIICQAIGSDFPNRLLLIFGMLSVAVAAFFILVQRDIKRLLAYSSVENMGLVAVELGIGGPLGIFAALLHILNHSLAKTLLFCGSGNVLLKYGTRDLNVVCGMLKIMPFTAVLFGGGALALAGMPPFNIFLSEFMTITAGLARNHLLIIVLLLLLLTLVLAGLVRMAARVLMAKPPQAVNRGDLGWLTTSPMVILLVMMLAMGTHIPQPVIRILAGASTIVLSGTHDLPAQRSTWHDFLPSGTASVSEKHSER	failed
MKFEGIYTPAITPLSADGSIDTQAFAEVLEFLVESKVHGIVIGGSTGEYYAHTAEERLALAAHASEVIAGRLPLVVGTGAIRTEDSLAYAEAARAIGADAILVGSPPYALPTSREIAEHVLAVDRAAGLPIMLYNYPARMGVEMDEAFFAAVAGCRNIVAIKESSGSTAQLHRLACRHPRIALSCGWDDQALEFFAWGARSWVCAGSNFIPGEHLALYQACVVENDFAKGRRIMAAMMPLMDFLESGHFVQSIKHGCELAGLRAGGVRAPLKALDEAGKAALAEIVARLKGEVAR	failed
MSHDRSVNVSHDAVIAKPERGTMLQSFSPRSHGSKGYSLPQDSEENRGSVGQSAGQSSTSVVDQVRSPADDAGVTSSSTICPAPVCRQFWKAGSYNDELSSKSQQPNGKNYLHVHPMFLHSNATSHKWAFGAVAELLDNAVDEIQNGATFVIVDKTTNPRDGATALLIQDDGGGMDPQAMRHCMGFGFSDKKSDSAIGRYGNGFKTSTMRLGADVIVFSRHSKNQTLTQSIGLLSYTYLTRTGHDRIVVPILDYEFNASAGEFKTLQDREHFISSLSILLEWSPFSTEAELLQQFDDVGPHGTKVIIYNMWLNSDAKLELDFDSVAEDILIEGSIKKTGSKIVNDHIASRFSYSLRVYLSILYLRIPETFKIILRGKVVEHHNVADDLMHPQYILYKPQAAGSEEALVVTTIGFLKEAPKVNLHGFCVYHKNRLIMPFWQVINYSSSRGRGVVGVLEANFVEPTHNKQDFEKTVLLQKLENRLKEMTVEYWSCHCVLIGYQVNKKPRLQIPQKVQPAGRQALSPPPGFQAVFPQGNTTSLPRVSTQPVLLEKRKEHPDSVASAALKRKVGNDDFTVPGHIRVEQFIHGSASQSQDIETVKLMEENKKLRAKCLDRKVRSQNLEVKAMNLRSELENYKSEYERLMVELQALDLVKDEHRRNVNT	failed
MADDDHIEAVLARLSRPQKLALVRGATDPEGTATGYLSGVEEAGIPPFRLVDGPLGIRAEGQRATAFPASIATAATFDPDLARQQGAAMGREAAALGQDALLAPGVNIIRVPHCGRNFEYLSEDPVHAGAVGAGLIDGIQSADVVATVKHFVANNQETHRTTVSTEVDERTLRELYLPPFRSAVDAGVGSVMTAYNRVNGTHMSDHGRLVGDVLKSEWGFNGYVVSDWYGLESTVGAANAGMDVEMPGVAAPGAAEAANSDTADDAEEFEWPDGIPDATRAGLFGDPLVEAIDSGEVPAERLDDMVRRVLGQMDRFGRLDGSRTAAEDGASDDQAGELDSQRHRDIAADVAARGTVLLDNDGVLPLADGADVAVIGPNIDEPKLGGGGSSETTPVHSVTPVAGIESRAEGAVTTAFGVPQIESVSLFDLLPFVGEDDDTDGTAADIAQQDPSLDDAVDAAAAADVAVVFVRDATTEARDRDSLALPGQQDDLVSAVAATNENTVVVVRSGGPVELPWREDVAAVLEQWYPGQADGDAAAAVLYGDRDPSGRLPVTFAPEGEYPTAGAERRYPGVDDEVHYDEDVFIGYRHFDDEDADPTYPFGHGHSYATFEYGDAEITGEWTVAVPVKNAADRPGREVIQAYVRPPSVDGVDRPRRELAGFEAVQLDADEQKTVALTLDDLAFSRYDPNSGWTVDTGTYTVEIGRSSRDIRTTVPVDR	failed
MDSGRLAVIALGGNAIAGPGMDVSVESQTAAVKRASSIIADVLADGWRSVITHGNGPQVGYLSEAFEALPPERPRQPLYIATAMTQAWIGLLLKHSLEEELRRRGLNVLVPVVISRVLVDVSDPSFNNPSKPVGPIYGREEAEELSRRYGWVFKRDPRGGFRRVVPSPRPVSIVDRDLIAEASAESPAVVALGGGGVPVVERPGGVLEPVEAVVDKDLASSLLATQLNADLLVILTDVPGVAVNYGREGERWLRRAAASELKKYLREGHFPPGSMGPKVEAAISFVERTGKPAVIGSLEEARQVLSLQAGTVVMLG	not failed
MTTDKQTSINLALSTINGKWKLSLMDELFQGTKRNGELMRALDGITQRVLTDRLREMEKDGLVHRESFNELPPRVEYTLTPEGYALYDALSSLCHWGETFAQKKARLNK	not failed
MMAEGGAADLDTQRSDIATLLKTSLRKGDTWYLVDSRWFKQWKKYVGFDSWDKYQMGDQNVYPGPIDNSGLLKDGDAQSLKEHLIDELDYILLPTEGWNKLVSWYTLMEGQEPIARKVVEQ	not failed
METNFSIPLNETEEVLPEPAGHTVLWIFSLLVHGVTFVFGVLGNGLVIWVAGFRMTRTVNTICYLNLALADFSFSAILPFRMVSVAMREKWPFGSFLCKLVHVMIDINLFVSVYLITIIALDRCICVLHPAWAQNHRTMSLAKRVMTGLWIFTIVLTLPNFIFWTTISTTNGDTYCIFNFAFWGDTAVERLNVFITMAKVFLILHFIIGFSVPMSIITVCYGIIAAKIHRNHMIKSSRPLRVFAAVVASFFICWFPYELIGILMAVWLKEMLLNGKYKIILVLINPTSSLAFFNSCLNPILYVFMGRNFQERLIRSLPTSLERALTEVPDSAQTSNTDTTSASPPEETELQAM	failed
MGFLEAYKSFWRNYVNFSGRAPRSAYWYVVLWNVIIFVILYALAFIFGISAIMEAAMGGTGMAGGGGAIVLVIILWLYLLAALLPTISLMVRRLHDSGKSGFFVLLSLIPFAGGIIMLIFMCLESDGPNQYGDGDIDSKFDF	failed
MTNIIKIRASVFIPMSWTEAKMDMETGQVIQFEGDSREFTPHAVNTMRSRVEQEVVVDFYKQEVFSYANTGITTEKVISPDGSVNKRTGKASTENIVCTDIVWNSGGVQFKMSASASNPLNVYAPPVDYVLNVCVKKDGSIDVQGEHDGFPCFEFYKQVDFGPFEKIYTHDFRETGDTAAALGGNMDYSFTKRL	not failed
MPSQKPIIVSKTSAAASSSSDRLRIIPLGGLHEIGKNTCIYEVGDEILLVDAGLAFPTDGMHGVNVVLPDMTYLRENQHRIKAMVVTHGHEDHIGGIPFHLRQLDIPIIYGPRLAMALLAGKLEEAGVVGRANVKTVQPREVVRIGQNFLVEFIRNTHSIADSFTLAIRTPLGVVIHTGDFKFDHTPVDGETFDIQRLADYGEQGVLCLVSDSTNAELPGFTPSERSVFPNLDRAFSQAQGRLIVTTFASSVHRVNMILELAKKHGRKVTVLGRSMLNVIAHARNLGYIHCSDDLFLPPKELRDHPDRDVLILTTGSQGEPLAALTRIARQEHPQVKIRQGDTVIFSANPIPGNTISVVNTIDQLMMQGAHVVYGKGAGIHVSGHGCQEDQKLMIALTKPKFFVPVHGEHRMLVQHCKTAQSMGVPPEHMIVIDNGDTVELTPESIGLGDRVTAGIELVDTSRTGLVDGKALKERQQLAEDGLVSLSALVNSQGQLVDAPTVHLRGVVTSADPRRVSVWAQKEVEMALDNRWADYCRRLPSGELDVDWVGLHAEVEVGMQRRLKRELQCVPMILCTLQSVPSVAAQPAEEDNRMRRRRSSAPIKVGAKL	failed

From a protein production outcome set (Wang et al. 2014)
